Results reported in patent US6444641.

Biological target: serum albumin (UniProt P08835)
Test: cell-based or functional assay

UniProt P08835, sequence (P08835 25-607 limits assumed): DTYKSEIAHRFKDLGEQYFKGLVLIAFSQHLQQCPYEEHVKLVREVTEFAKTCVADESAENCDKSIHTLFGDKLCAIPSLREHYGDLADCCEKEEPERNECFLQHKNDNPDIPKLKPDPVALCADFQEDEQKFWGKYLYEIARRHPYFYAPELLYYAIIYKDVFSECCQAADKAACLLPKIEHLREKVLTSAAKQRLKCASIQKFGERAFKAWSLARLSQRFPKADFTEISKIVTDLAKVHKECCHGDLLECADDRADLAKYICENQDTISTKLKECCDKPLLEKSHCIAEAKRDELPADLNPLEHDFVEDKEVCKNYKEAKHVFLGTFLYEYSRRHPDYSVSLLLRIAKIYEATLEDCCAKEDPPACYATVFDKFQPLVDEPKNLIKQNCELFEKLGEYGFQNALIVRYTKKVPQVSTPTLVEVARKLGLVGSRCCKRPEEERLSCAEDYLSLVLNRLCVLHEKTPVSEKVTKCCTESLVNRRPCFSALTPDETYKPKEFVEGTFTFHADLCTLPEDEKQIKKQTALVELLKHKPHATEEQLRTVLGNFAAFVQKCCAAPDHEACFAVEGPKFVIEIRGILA

## B29-N^ε-myristoyl human insulin (from UniProt P01308 90-110; P01308 25-54) (ligand)
  plasma drug levels at 100 minutes after subcutaneous injection (6 nmol/kg) in pigs, by double antibody radioimmunoassay: 18 fold
